Test results taken from US20160319033A1 (INSERM INSTITUT NATIONAL DE LA SANTE ET DE LA RECHERCHE …, published 2016).

Key:
[1] = biological target: T1, human HER3 receptor on cells (human, UniProt P21860 20-1342); experiment: flow cytometry competition on SKBR3 cells; NRG varied, displaced molecule: antibody B at a fixed concentration
T1 construct: whole, on cells; also called ErbB3
Description: Cells were then washed and further incubated with a 1:60 dilution of appropriate FITC-conjugated secondary antibody (Sigma) for 45 min on ice, before cytometry analysis on a Quanta apparatus (Beckman-Coulter).

[2] = biological target: T1, human HER3 receptor on cells; experiment: fluorescence of d2-labelled NRG on HER2/HER3-transfected 3T3 fibroblasts; unlabelled NRG varied, displaced molecule: d2-labelled NRG
Description: (§1) After KREBS washing, fluorescence at 620/670 nm was measured using a Pherastar microplate reader.

[3] = biological target: T2, HER3 Snap-tagged, on HEK cells (human, UniProt P21860 20-1342, Snap-tag labelled with Lumi4-terbium cryptate donor); experiment: Tag-Lite HTRF on HER3 Snap-tagged HEK cells; d2-labelled 9F7-F11 varied; co-incubated with NRG (legend printed 'NRG 100 mM')
T2 construct: whole, on cells; also called HER3 Snap-tagged HEK cells; not shown: Snap-tag (CisBio Tag-Lite)
Description: (§2) After 16 h of incubation, the fluorescence of Lumi4-terbium and d2 was measured respectively at 620 and 665 nm (60 μs delay, 400 μs integration) upon 337 nm excitation on a Pherastar FS instrument.

[4] = biological target: T2, HER3 Snap-tagged, on HEK cells; experiment: Tag-Lite HTRF on HER3 Snap-tagged HEK cells, d2-labelled mAb, without NRG
Description: as §2

[5] = biological target: T2, HER3 Snap-tagged, on HEK cells; experiment: Tag-Lite HTRF on HER3 Snap-tagged HEK cells; d2-labelled 9F7-F11 varied; without NRG
Description: as §2

[6] = biological target: T2, HER3 Snap-tagged, on HEK cells; experiment: Tag-Lite HTRF on HER3 Snap-tagged HEK cells, with NRG against without NRG
Description: as §2

[7] = biological target: T2, HER3 Snap-tagged, on HEK cells; experiment: Tag-Lite HTRF on HER3 Snap-tagged HEK cells, d2-labelled mAb, co-incubated with NRG
Description: as §2

[8] = biological target: T1, human HER3 receptor on cells; experiment: fluorescence of d2-labelled NRG on HER2/HER3-transfected 3T3 fibroblasts; 9F7-F11 varied; half-maximal enhancement of the binding of labelled NRG to HER3
Description: as §1

B1: neuregulin (NRG) (ligand, UniProt Q02297-6 177-241, looked up)
chain: SHLVKCAEKEKTFCVNGGECFMVKDLSNPSRYLCKCPNEFTGDRCQNYVMASFYKHLGIEFMEAE
modifications: also: d2 dye label as tracer, site not given here
notes: also called neuregulin 131 (as printed, probably neuregulin beta1); heregulin
IC50 (read off the curve) [1]: ~2 nM
IC50 (read off the curve) [2]: ~5 nM

B2: murine anti-human-HER3 monoclonal antibody 9F7-F11 (antibody, V domains shown)
VH: EVKLVESGGGLVQPGGSLKLSCAASGFTFSSYTMSWVRQTPEKRLEWVAYISDGGGVTYYPDTIKGRFTISRDNAKNTLYLQMSSLKSEDTAMYYCARDRYGLFAYWGQGTLVTVSA
VL: DIVMTQSQKFMSTSVGDRVSITCKASQNVGIAVAWYQQKPGQSPKLLIYSASNRYTGVPDRFTGSGSGTDFTLTISNMQSEDLADYFCQQYSNYPYTFGGGTKLEIK
notes: Murine hybridoma antibody; also called mAb 9F7-F11; anti-HER3 Ab 9F7-F11
EC50 (read off the curve) [3]: ~0.5 nM
Kd [4]: 2.33 nM
EC50 (read off the curve) [5]: ~2 nM
fold increase of affinity with NRG against without NRG [6]: 6 fold
Kd [7]: 0.47 nM
EC50 (read off the curve) [8]: ~10 nM
